Results taken from US6174679.

Molecular target: T1, CIF150/hTAFII150 (Homo sapiens) (UniProt Q6P1X5)
T1 sequence: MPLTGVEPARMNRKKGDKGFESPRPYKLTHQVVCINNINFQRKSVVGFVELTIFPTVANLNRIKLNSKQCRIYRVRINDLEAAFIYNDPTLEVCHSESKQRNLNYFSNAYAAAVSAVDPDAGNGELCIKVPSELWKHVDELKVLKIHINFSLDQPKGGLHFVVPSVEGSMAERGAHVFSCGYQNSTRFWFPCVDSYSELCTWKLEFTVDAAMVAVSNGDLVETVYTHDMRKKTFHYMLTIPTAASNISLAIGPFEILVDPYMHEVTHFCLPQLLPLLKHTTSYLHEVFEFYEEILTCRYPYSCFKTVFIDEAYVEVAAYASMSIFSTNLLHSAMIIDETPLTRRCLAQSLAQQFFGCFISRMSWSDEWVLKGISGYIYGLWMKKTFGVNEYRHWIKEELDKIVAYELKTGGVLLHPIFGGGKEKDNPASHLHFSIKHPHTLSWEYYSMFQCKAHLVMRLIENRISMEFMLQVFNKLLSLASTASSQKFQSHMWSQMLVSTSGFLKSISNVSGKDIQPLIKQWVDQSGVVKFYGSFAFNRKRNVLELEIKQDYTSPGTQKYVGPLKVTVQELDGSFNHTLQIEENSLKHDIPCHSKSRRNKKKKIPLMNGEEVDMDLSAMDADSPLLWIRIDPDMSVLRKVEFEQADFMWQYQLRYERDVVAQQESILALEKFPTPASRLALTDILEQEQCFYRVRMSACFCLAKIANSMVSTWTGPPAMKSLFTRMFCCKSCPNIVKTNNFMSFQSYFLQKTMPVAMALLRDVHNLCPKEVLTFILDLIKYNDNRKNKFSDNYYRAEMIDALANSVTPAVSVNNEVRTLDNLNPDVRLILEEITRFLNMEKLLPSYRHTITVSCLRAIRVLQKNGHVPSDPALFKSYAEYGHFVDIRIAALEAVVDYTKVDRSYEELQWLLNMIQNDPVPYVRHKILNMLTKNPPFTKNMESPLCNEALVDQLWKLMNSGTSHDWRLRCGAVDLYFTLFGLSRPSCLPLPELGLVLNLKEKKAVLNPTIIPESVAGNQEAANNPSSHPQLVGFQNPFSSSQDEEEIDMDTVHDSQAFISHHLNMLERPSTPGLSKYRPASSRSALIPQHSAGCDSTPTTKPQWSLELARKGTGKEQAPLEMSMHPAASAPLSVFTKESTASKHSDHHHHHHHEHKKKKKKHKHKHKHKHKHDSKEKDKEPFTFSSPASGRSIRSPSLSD
Assay: EMSA
Details: affinity improvement after selection (text gives both three and four rounds); dGdC competitor; supershifted by anti-CIF150 serum

## GAG (double strand) [selected CBE fragments with GAG core]
  binding signal: 5 fold
